Reference: patent US9475855B2, “Human Notch3 based fusion proteins as decoy inhibitors of Notch3 signaling” (THE TRUSTEES OF COLUMBIA UNIVERSITY IN THE CITY OF NEW YORK, priority 2008, dated 2016)

Key:
Notch1 signaling = experiment: co-culture assay of ligand-induced Notch signaling (CSL-luciferase reporter; HeLa expressing Notch1, ligand-expressing 293/Bosc cells); type: cell-based; conditions: for activation of Notch1 signaling by Notch ligands: N1ECD/Fc expression vector co-transfected with full-length Notch1 and CSL-luciferase reporter in HeLa cells, co-culture with ligand expressing cells
Method: Notch and Notch responsive transcriptional reporters are expressed in a “Notch-responsive” cell, HeLa. Notch ligands, Jagged-1, Delta-like 1, or Delta-like 4 are expressed in a “ligand-presenting” cell, 293. Expression is mediated by transfection of individual cell populations, cells are co-cultured, and then assayed for Notch-dependent reporter activity.
To determine ligand-induced Notch signaling, co-culture assays were performed using HeLa and 293-derived Bosc cells. Transient transfections were performed by calcium phosphate precipitation. Hela cells plated 1-day prior in 10-cm plates at 1.5×10^6 were transfected with 333 ng of pBOS Notch1, 333 ng pGA981-6, and 83 ng pLNC lacZ with either 666 ng pCMV-Fc or pHyTC-N1ECDFc (333 ng for x1, 666 ng for x2). Bosc cells plated 1-day prior in 10-cm plates at 4×10^6 were transfected with either 680 ng pHyTc-Jagged1, pHyTc-Dll1, pHyTc-Dll4, or pHyTc-x (empty vector). One day after transfection, the cells were co-cultured in triplicate (HeLa:Bosc, 1:2) on 12-well plates for 24 hours. Cells were harvested and luciferase activity was determined 2-days post-transfection using the Enhanced Luciferase assay kit (BD PharMingen), and […] activity was determined using the Galacto-Light Plus kit (PE Biosystems). All assays were performed in a Berthold dual-injection luminometer.
An in vitro co-culture system (FIG. 3) with ligands expressed on one cell and Notch receptor activation scored in another cell was used to measure transcriptional activation of the Notch pathway. […] The N1ECD/Fc expression vector was co-transfected at different ratios with full-length Notch1 and the CSL-luciferase reporter in HeLa cells, followed by co-culture with ligand expressing 293 cells. We observed that activation of Notch1 signaling by Notch ligands was reduced by N1ECD/Fc expression. […] Notch1ECD/Fc could block signaling mediated by Jagged1, Delta-like 1 or Delta-like 4.

Ad-VEGF-infected HUVEC = experiment: VEGF-induced HUVEC budding (sprouting) on collagen gel; type: cell-based, human; conditions: for budding / morphology of HUVEC with Notch fusion protein alone: no Ad-VEGF
Method: For making collagen gels, an ice-cold solution of porcine type I collagen (Nitta gelatin, Tokyo, Japan) was mixed with 10xRPMI1640 medium and neutralization buffer at the ratio of 8:1:1. 400 μl aliquots of collagen gel were then added to 24-well plates and allowed to gel for at least 1 hour at 37° C. Following adenoviral infection (above), HUVEC was harvested and plated at 1.3×10^5 cells per well onto the top of the collagen gel in 24-well plates in 0.8 ml of EGM2 medium. HUVEC became nearly confluent 48 hours after plating. After seeding, medium was changed every 2 days for 1 week. Sprouting was observed and photographs taken after 8 days with an Olympus digital camera mounted to a microscope. For quantification of the number of sprouts, 5 fields per each well were randomly selected and sprouting was counted under microscopy in a blind manner by two investigators.
In this experiment, we evaluated the effect of Notch decoy on induction of budding (initiation of sprouting) by over-expressed VEGF-165 in HUVEC. When Ad-VEGF-infected HUVEC were cultured on type collagen gel for 8 days, budding was induced into collagen gel.

HUVEC = HUVEC proliferation (CCK-8 kit); type: cell-based, human; conditions: transduced N1ECDFc, complete medium, 4 days
Method: These Figures show proliferation of Ad-VEGF165-transduced HUVEC. HUVEC were transduced with Ad-VEGF165 at the indicated dosages. Ad-LacZ was also co-infected to make the same total amount of adenovirus at a MOI of 40 pfu/cell. HUVEC were suspended in SFM supplemented with 1% FBS and then plated at 1×10^4 cells/well in 24-well multi-wll plates with 0.4 ml of medium. After 4 days, cell numbers were determined using the CCK-8 kit and the results are indicated as the ratio of cell numbers determined to the number of control cells, which were transduced with Ad-GFP at a MOI of 40 pfu/cell. […] Ad-VEGF-transduced HUVEC were treated with SU5416 at the indicated dosages.
These Figures show the effect of alteration of Notch signaling on cell proliferation. The cells were transduced with the indicated adenoviruses. Ad-GFP was also co-infected to make the same total amount of adenovirus at a MOI of 60 pfu/cell. After 4 days, cell numbers were determined using the CCK-8 kit and results are indicated as the ratio of cell numbers determined to the number of control cells, which were transduced with AD-GFP at MOI of 60 pfu/cell. […] Transduced HUVEC were suspended in complete medium and then plated at 1×10^4 cells/well in 24-well multiwell plates with 0.4 ml of indicated medium (□: Ad-N1IC; ▪: Ad-N1ECDFc). […]

MMP2 = experiment: gelatin zymography of conditioned medium, MMP-2; type: cell-based, human; conditions: co-transduction with Ad-VEGF, collagen gel, day 4
Method: (§1) FIGS. 24A-B show gelatin zymography analysis of MMP-9 and MMP-2 activity stimulated by VEGF in HUVEC. […] Transduced HUVEC were cultured on fibrin gel on the indicated day (i.e. D2, D4, D6, D8). Similar results were also obtained by using collagen gel, although induction of MMP-9 was stronger on fibrin gel than collagen gel (data not shown). […] HUVEC were transduced with Ad-N1ECDFc at the indicated doses and condition medium was collected from HUVEC cultured on collagen gel at day 4. FIGS. 24C-D show up-regulation of MMP-9 and MT1-MMP with Notch signaling. HUVEC were transduced with either Ad-LacZ or Ad-N1IC at 40 MOI. Numbers show PCR cycles. […] HUVEC were transduced with Ad-VEGF in the absence or presence of co-transduction of Ad-N1ECDFc at 40 MOI each. Ad-LacZ was co-transduced to make the same total amount of adenovirus at 80 MOI.
(§2) Requisition of MMPs for angiogenic sprouting has been established by synthetic MMP inhibitors (16). GM6001 is one broad inhibitor against MMPs including MMP2, MMP9 and MT1-MMP (18).

MMP9 = experiment: RT-PCR analysis of MMP9 expression in HUVEC; type: cell-based, human
Method: as §1, §2

MT1-MMP = experiment: RT-PCR analysis of MT1-MMP expression in HUVEC; type: cell-based, human
Method: as §1, §2

[1] = Ad-N1ECDFc infection alone, Ad-LacZ infected HUVEC (data not shown)
[2] = Ad-VEGF-HUVEC, co-transduction at 40 MOI each

B1: N1ECDFc: Notch-based fusion protein or decoy: Notch1 extracellular domain EGF repeats fused to Fc; expressed from plasmid or adenovirus (Ad-N1ECDFc) (protein)
chain: ARGLRCSQPSGTCLNGGRCEVANGTEACVCSGAFVGQRCQDPSPCLSTPCKNAGTCYVVDHGGIVDYACSCPLGFSGPLCLTPLANACLANPCRNGGTCDLLTLTEYKCRCPPGWSGKSCQQADPCASNPCANGGQCLPFESSYICGCPPGFHGPTCRQDVNECSQNPGLCRHGGTCHNEIGSYRCACRATHTGPHCELPYVPCSPSPCQNGGTCRPTGDTTHECACLPGFAGQNCEENVDDCPGNNCKNGGACVDGVNTYNCRCPPEWTGQYCTEDVDECQLMPNACQNAGTCHNSHGGYNCVCVNGWTGEDCSDNIDDCASAACFQGATCHDRVASFYCECPHGRTGLLCHLNDACISNPCNEGSNCDTNPVNGKAICTCPRGYTGPACSQDVDECALGANPCEHAGKCLNTLGSFECQCLQGYTGPRCEIDVNECISNPCQNDATCLDQIGEFQCICMPGYEGVYCEINTDECASSPCLHNGRCVDKINEFLCQCPKGFSGHLCQYDVDECASTPCKNGAKCLDGPNTYTCVCTEGYTGTHCEVDIDECDPDPCHIGLCKDGVATFTCLCQPGYTGHHCETNINECHSQPCRHGGTCQDRDNYYLCLCLKGTTGPNCEINLDDCASNPCDSGTCLDKIDGYECACEPGYTGSMCNVNIDECAGSPCHNGGTCEDGIAGFTCRCPEGYHDPTCLSEVNECNSNPCIHGACRDGLNGYKCDCAPGWSGTNCDINNNECESNPCVNGGTCKDMTSGYVCTCREGFSGPNCQTNINECASNPCLNQGTCIDDVAGYKCNCPLPYTGATCEVVLAPCATSPCKNSGVCKESEDYESFSCVCPTGWQGQTCEIDINECVKSPCRHGASCQNTNGSYRCLCQAGYTGRNCESDIDDCRPNPCHNGGSCTDGVNAAFCDCLPGFQGAFCEEDINECATNPCQNGANCTDCVDSYTCTCPTGFNGIHCENNTPDCTESSCFNGGTCVDGINSFTCLCPPGFTGSYCQYDVNECDSRPCLHGGTCQDSYGTYKCTCPQGYTGLNCQNLVRWCDSAPCKNGGKCWQTNTQYHCECRSGWTGFNCDVLSVSCEVAAQKRGIDVTLLCQHGGLCVDEEDKHYCHCQAGYTGSYCEDEVDECSPNPCQNGATCTDYLGGFSCKCVAGYHGSNCSEEINECLSQPCQNGGTCIDLTNTYKCSCPRGTQGVHCEINVDDCHPPLDPASRSPKCFNNGTCVDQVGGYTCTCPPGFVGERCEGDVNECLSNPCDPRGTQNCVQRVNDFHCECRAGHTGRRCESVINGCRGKPCRNGGVCAVASNTARGFICRCPARFEGATCENDARTCGSLRCLNGGTCISGPRSPTCLCLGSFTGPECQFPASSPCVGSNPCYNQGTCEPTSESPFYRCLCPAKFNGLLCHILDYSFTDLGPG
modifications: left off: a dimerising Fc or GST
In the case of B1, the “concentration-dependency of inhibiting signaling” value (Notch1 signaling; 2:1 ratio of N1ECD/Fc to Notch1 compared with 1:1 ratio) is reported as “more effective”, the “activation of Notch1 signaling by Notch ligands” value (Notch1 signaling) is reported as “inhibition” and the “activation of Notch1 signaling by Notch ligands” value (Notch1 signaling; listed as N1ECD/Fc) is reported as “reduced”. For the same molecule, the “signaling mediated by Delta-like 1” value (Notch1 signaling; co-culture with Delta-like 1 expressing cells) was “block”, the “signaling mediated by Delta-like 4” value (Notch1 signaling; co-culture with Delta-like 4 expressing cells) was “block” and the “signaling mediated by Jagged1” value (Notch1 signaling; co-culture with Jagged1 expressing cells) was “block”. The “cell number in VEGF-induced budding assay” value (Ad-VEGF-infected HUVEC; FIG. 22I) was “without affecting cell number”, the “budding of Ad-VEGF-HUVEC” value (Ad-VEGF-infected HUVEC; collagen gel) was “clearly inhibited” and the “budding / morphology of HUVEC with Notch fusion protein alone” value (Ad-VEGF-infected HUVEC) was “Neither Ad-LacZ or Ad-N1ECDFc-transduced HUVEC formed buds”. For the same molecule, the “budding / morphology of HUVEC with Notch fusion protein alone” value (Ad-VEGF-infected HUVEC; listed as Notch fusion protein) was “less effect on morphology”, the “proliferation of HUVEC” value (HUVEC) was “did not clearly alter” and the “activation of MMP2” value (MMP2) was “inhibition”. For the same molecule, the “expression of MMP9” value (MMP9; [1]) was “did not affect”, the “VEGF-induced up-regulation of MMP9 mRNA” value (MMP9; [2]) was “inhibited” and the “expression of MT1-MMP” value (MT1-MMP; [1]) was “did not affect”. For the same molecule, the “VEGF-induced up-regulation of MT1-MMP mRNA” value (MT1-MMP; [2]) was “inhibited”.
